Substitutions are numbered along the chain they refer to. Numbers in names are those of the source.
T1: cyno TfR extracellular domain (analogous construct to human TfR ecd) (cynomolgus monkey, UniProt Q5RDH6 87-760 (Pongo abelii entry))
T1 construct: also called cynoTfR ecd
T1 chain: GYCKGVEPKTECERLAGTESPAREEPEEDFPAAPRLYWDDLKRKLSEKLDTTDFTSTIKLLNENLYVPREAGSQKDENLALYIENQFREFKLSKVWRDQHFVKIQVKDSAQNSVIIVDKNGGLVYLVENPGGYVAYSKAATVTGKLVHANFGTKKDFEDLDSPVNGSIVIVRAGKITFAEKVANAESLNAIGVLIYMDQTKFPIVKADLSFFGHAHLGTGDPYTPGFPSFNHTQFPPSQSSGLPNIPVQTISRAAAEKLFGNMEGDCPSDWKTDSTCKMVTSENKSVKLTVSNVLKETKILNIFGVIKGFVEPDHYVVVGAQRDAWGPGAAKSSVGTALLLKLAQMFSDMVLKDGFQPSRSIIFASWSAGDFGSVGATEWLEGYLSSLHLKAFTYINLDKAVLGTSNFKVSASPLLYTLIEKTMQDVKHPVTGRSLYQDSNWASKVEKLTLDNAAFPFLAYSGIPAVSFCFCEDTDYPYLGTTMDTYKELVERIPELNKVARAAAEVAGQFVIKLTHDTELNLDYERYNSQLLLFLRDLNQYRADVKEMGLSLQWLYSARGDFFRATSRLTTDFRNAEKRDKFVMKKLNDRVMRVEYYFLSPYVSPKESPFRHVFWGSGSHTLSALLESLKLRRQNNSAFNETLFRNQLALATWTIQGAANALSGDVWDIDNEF

B1: hu7A4.v9 (antibody, V domains shown)
VH: EVQLVQSGAEVKKPGASVKVSCKASGYTFTDYAMHWVRQAPGQGLEWMGGISTYFGRTNYNQKFKGRVTMTRDTSISTAYMELSRLRSDDTAVYYCARGLSGNYVMDYWGQGTTVTVSS
VL: DIVMTQSPDSLAVSLGERATINCRASESVDSYGNSFMHWYQQKPGQPPKLLIYRASNLESGVPDRFSGSGSRTDFTLTISSLQAEDVAVYYCQQSNEGPPTFGQGTKLEIK
notes: IgG
B2: hu7A4.v12 (antibody, V domains shown)
VH: B1 VH with A24G, R72V
VL: B1 VL
notes: IgG
B3: hu7A4.v10 (antibody, V domains shown)
VH: B1 VH with A24G
VL: B1 VL
notes: IgG
B4: hu7A4.v11 (antibody, V domains shown)
VH: B1 VH with R72V
VL: B1 VL
notes: IgG
B5: hu16F6.v1 (antibody, V domains shown)
VH: EVQLVESGPGLVKPSETLSLTCTVSGNSITSEYAWNWIRQPPGKGLEWIGYISYSGTTSYNPSLKSRVTISVDTSKNQFSLKLSSVTAADTAVYYCARYGYGNPATRYFDVWGQGTLVTVSS
VL: DIQMTQSPSSLSASVGDRVTITCRASKSISKYLAWYQQKPGKAPKLLLYSGSTLQSGVPSRFSGSGSGTDYTLTISSLQPEDFATYYCQQHNEYPWTFGQGTKVEIK
notes: IgG; HC 71 V, 78 F
B6: hu16F6.v4 (antibody, V domains shown)
VH: B5 VH with V72R, F79L
VL: B5 VL with A43T, P44N
notes: IgG; HC 71 R, 78 L; also called 16F6.v4 IgG
B7: hu16F6.v3 (antibody, V domains shown)
VH: B5 VH
VL: B5 VL with A43T, P44N
notes: IgG; HC 71 V, 78 F
B8: H90A (antibody, V domains shown)
VH: EVQLVQSGAEVKKPGASVKVSCKASGYTFTSYWMHWVRQAPGQRLEWIGEINPTNGRTNYIEKFKSRATLTVDKSASTAYMELSSLRSEDTAVYYCARGTRAYHYWGQGTMVTVSS
VL: DIQMTQSPSSLSASVGDRVTITCRASDNLYSNLAWYQQKPGKSPKLLVYDATNLADGVPSRFSGSGSGTDYTLTISSLQPEDFATYYCQAFWGTPLTFGQGTKVEIK
notes: also called 15G11.v5 H90A (CDR-L3) IgG
B9: L96A (antibody, V domains shown)
VH: B8 VH
VL: B8 VL with A90H, L96A
notes: also called 15G11.v5 L96A (CDR-L3) IgG
B10: H101A (antibody, V domains shown)
VH: B8 VH with H104A
VL: B8 VL with A90H
notes: also called 15G11.v5 H101A (CDR-H3) IgG; copies: 2 + 2
B11: 6270 (antibody, V domains shown)
VH: QVQLVQSGAEVKKPGSSVKVSCKASGGTFSGYGISWVRQAPGQGLEWMGNIIPGFGTANYAQKFQGRVTITADESTSTAYMELSSLRSEDTAVYYCARSGGTKYGMLDVWGQGTMVTVSS
VL: EIVMTQSPATLSVSPGERATLSCRASQSVSSNLAWYQQKPGQAPRLLIYGASTRATGIPARFSGSGSGTEFTLTISSLQSEDFAVYYCQQLLLWPPRTFGGGTKVEIK
notes: anti-BACE1 IgG
B12: 6299 (antibody, V domains shown)
VH: B11 VH with F29L, G33A, F64S, K103R
VL: B11 VL with S30G, L91S, L92Y
notes: anti-BACE1 IgG
B13: 6297 (antibody, V domains shown)
VH: QLQLQESGPGLVKPSETLSLTCTVSGGPISSSSYYWGWIRQPPGKGLEWIGNIYYSGSTYYNPSLRGRVTISVDTSKNQFSLKLSSVTAADTAVYYCARLGHGYNYFDLWGRGTLVTVSS
VL: EIVLTQSPATLSLSPGERATLSCRASQSVSSYLAWFQQKPGQAPRLLIYDASNRATGIPARFSGSGSGTDFTLTISSLEPEDFAVYYCQQVYVWPPRTFGGGTKVEIK
notes: anti-BACE1 IgG
B14: 6275 (antibody, V domains shown)
VH: B11 VH with S30R, G33A
VL: B11 VL with L92F
notes: anti-BACE1 IgG
B15: 6289 (antibody, V domains shown)
VH: B13 VH with P28S, N52S, Y55R, G67S, A98V, L100V, Y104I, N105S
VL: B13 VL with F36Y, V91S, Y92L, V93T
notes: anti-BACE1 IgG
B16: 6296 (antibody, V domains shown)
VH: B13 VH with P28S
VL: B13 VL
notes: anti-BACE1 IgG
B17: 6293 (antibody, V domains shown)
VH: B13 VH with P28S, N52M, Y60W, G67S, L100V, Y104V, N105S
VL: B13 VL with F36Y, N53K, V93T
notes: anti-BACE1 IgG
B18: 6288 (antibody, V domains shown)
VH: B13 VH with P28S, I29T, N52S, Y55R, G67S, L100V, Y104I, N105S
VL: B13 VL with F36Y, V91S, Y92L, V93T
notes: anti-BACE1 IgG
B19: 6279 (antibody, V domains shown)
VH: B11 VH with S30R, G33A
VL: B11 VL
notes: anti-BACE1 IgG
B20: 6274 (antibody, V domains shown)
VH: B11 VH
VL: B11 VL with N32H, L92I
notes: anti-BACE1 IgG
B21: 6290 (antibody, V domains shown)
VH: B13 VH with P28S, N52M, Y60W, R66K, G67S, L100V, H102L, Y104V, N105S
VL: B13 VL with F36Y, N53K, V93T
notes: anti-BACE1 IgG

Biological target: T2, human TfR extracellular domain with N-terminal His tag (human, UniProt P02786 89-760)
T2 construct: Biotinylated in some assays; also called huTfR; HuTfR
Experiment: SPR, IgG;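 also: His-tagged TfR captured via immobilized anti-His antibody on a CM5 chip, antibody injected in 3-fold dilution series by single cycle kinetics, 1:1 Langmuir or steady-state fit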
Procedure: (§1) Antibody affinities were measured using surface plasmon resonance (“SPR”) (Biacore™, GE Healthcare). Anti-His antibody (Qiagen) was coupled onto four different flow cells of a BIACORE™ CM5 sensor chip (Biacore, Inc., Piscataway, N.J.) at between 6000 and 8000 RU. Immobilization was achieved by random coupling through amino groups using a protocol provided by the manufacturer. 10×HBS-P (Biacore, Inc., Piscataway, N.J.) was diluted in water and served as the dilution and running buffer. Purified human or cyno TfR was captured, followed by a 3-fold dilution series of IgG or Fab that was injected at a flow rate of 30 ml/min using the single cycle kinetics method. Affinity constants were determined using a simple 1:1 Langmuir binding model or using a steady state model when kₒₙ or koff was beyond the detection limit. The equilibrium dissociation constant (KD) was calculated as the ratio of association rate constant (kₒₙ) and dissociation rate constant (koff).
(§2) In both cases, the SPR experiments were performed as described above.

T2 sequence (P02786 89-760 G142S): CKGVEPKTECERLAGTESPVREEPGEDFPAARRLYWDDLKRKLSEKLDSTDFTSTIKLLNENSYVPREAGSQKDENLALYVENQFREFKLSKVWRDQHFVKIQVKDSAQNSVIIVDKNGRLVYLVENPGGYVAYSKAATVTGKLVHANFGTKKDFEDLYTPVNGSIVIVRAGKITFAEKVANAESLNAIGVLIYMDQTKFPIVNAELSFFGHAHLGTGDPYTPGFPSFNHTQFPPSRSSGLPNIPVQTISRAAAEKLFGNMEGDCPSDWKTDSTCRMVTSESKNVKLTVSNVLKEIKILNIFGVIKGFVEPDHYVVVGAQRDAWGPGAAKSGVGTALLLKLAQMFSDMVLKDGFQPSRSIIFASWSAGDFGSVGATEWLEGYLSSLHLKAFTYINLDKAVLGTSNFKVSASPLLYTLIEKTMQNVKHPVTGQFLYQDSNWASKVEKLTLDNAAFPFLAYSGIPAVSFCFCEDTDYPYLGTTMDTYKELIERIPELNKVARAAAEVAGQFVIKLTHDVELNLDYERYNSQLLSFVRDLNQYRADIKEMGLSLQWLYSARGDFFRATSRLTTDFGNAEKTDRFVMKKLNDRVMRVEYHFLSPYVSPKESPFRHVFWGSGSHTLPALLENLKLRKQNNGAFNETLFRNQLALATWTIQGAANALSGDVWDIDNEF

Kd [nM]	Binder
0.119	B1
0.2	B2
0.143	B3
0.156	B4
18.7	B5
0.884	B6
4.11	B7

Biological target: T1, cyno TfR extracellular domain …
Experiment: SPR, IgG;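 also: His-tagged TfR captured via immobilized anti-His antibody on a CM5 chip, antibody injected in 3-fold dilution series by single cycle kinetics, 1:1 Langmuir or steady-state fit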
Procedure: as §1, §2

Kd [nM]	Binder
0.428	B1
2.09	B2
0.505	B3
0.943	B4
199	B5
11	B6
34.5	B7

Biological target: T2, human TfR extracellular domain with …
Experiment: ELISA, IgG
Procedure: (§3) Affinity variants were generated by making individual alanine substitutions in CDR-L3 or CDR-H3 using standard techniques. These variants were screened as IgG by ELISA and SPR to identify positions important for binding to human and cyno TfR; the monovalent affinity of selected variants as Fab was also determined. […] Plates were washed with PBS/0.05% Tween 20 and blocked using Superblock blocking buffer in PBS (Thermo Scientific, Hudson, N.H.). Supernatants containing expressed IgG were diluted serially 1:5 and added to the plate for 1 h. […] Plates were washed with PBS/0.05% Tween 20 and 1:1000 diluted HRP-Goat-anti kappa (Southern Biotech) was added the plate and incubated for 1 h at room temperature. Plates were washed with PBS/0.05% Tween 20 and detected using TMB substrate (BioFX Laboratories, Owings Mills).

EC50 [µg/mL]	Binder
0.013	B8
0.0099	B9
0.0142	B10

Biological target: T1, cyno TfR extracellular domain …
Experiment: ELISA, IgG
Procedure: as §3

EC50 [µg/mL]	Binder
0.024	B8
0.018	B9
0.0216	B10

Biological target: T3, human BACE1 ECD
T3 construct: analyte of the Octet assay (200 nM) and enzyme of the first short substrate assay; also called human BACE1 extracellular domain
Experiment: Octet, pH 5.0;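 also: antibodies captured on anti-human capture sensor tips, dissociation monitored in PBS with BSA buffer, kinetics fitted with a one-to-one binding model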
Procedure: (§4) Anti-BACE1 antibodies were loaded onto anti-human capture (AHC) sensors (tips) followed by 60 seconds baseline in assay buffer. […] Tips were transferred to assay buffer for 5 minutes, 30 minutes, or 120 minutes depending on the off-rate, for off-rate measurement. Assay buffer was either PBS+0.1% BSA, pH 7.5; or PBS+0.1% BSA, pH 5.0. Kinetics were analyzed using a 1:1 binding model.

T3 sequence (single chain, as listed by the source limits assumed): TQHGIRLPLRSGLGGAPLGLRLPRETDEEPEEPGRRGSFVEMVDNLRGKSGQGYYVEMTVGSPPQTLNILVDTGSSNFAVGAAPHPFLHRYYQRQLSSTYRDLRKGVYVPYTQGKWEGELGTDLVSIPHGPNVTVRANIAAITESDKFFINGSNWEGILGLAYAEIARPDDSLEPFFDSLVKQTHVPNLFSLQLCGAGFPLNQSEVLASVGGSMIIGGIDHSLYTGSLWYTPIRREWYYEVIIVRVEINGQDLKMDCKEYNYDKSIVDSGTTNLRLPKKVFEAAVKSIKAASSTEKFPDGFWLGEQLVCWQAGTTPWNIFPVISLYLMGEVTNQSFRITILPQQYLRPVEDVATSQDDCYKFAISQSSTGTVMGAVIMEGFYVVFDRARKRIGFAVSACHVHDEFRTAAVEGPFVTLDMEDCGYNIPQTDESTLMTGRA

Kd [nM]	Binder
< 0.29	B11
< 0.28	B12
0.28	B13
< 0.34	B14
0.39	B15
0.2	B16
< 0.28	B17
< 0.21	B18
< 0.36	B19
0.53	B20
< 0.23	B21

Biological target: T4, murine BACE1 ECD
T4 construct: analyte of the Octet assay (200 nM) and enzyme of the first short substrate assay
Experiment: Octet, pH 5.0;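 also: antibodies captured on anti-human capture sensor tips, dissociation monitored in PBS with BSA buffer, kinetics fitted with a one-to-one binding model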
Procedure: as §4

T4 sequence (single chain, as listed by the source limits assumed): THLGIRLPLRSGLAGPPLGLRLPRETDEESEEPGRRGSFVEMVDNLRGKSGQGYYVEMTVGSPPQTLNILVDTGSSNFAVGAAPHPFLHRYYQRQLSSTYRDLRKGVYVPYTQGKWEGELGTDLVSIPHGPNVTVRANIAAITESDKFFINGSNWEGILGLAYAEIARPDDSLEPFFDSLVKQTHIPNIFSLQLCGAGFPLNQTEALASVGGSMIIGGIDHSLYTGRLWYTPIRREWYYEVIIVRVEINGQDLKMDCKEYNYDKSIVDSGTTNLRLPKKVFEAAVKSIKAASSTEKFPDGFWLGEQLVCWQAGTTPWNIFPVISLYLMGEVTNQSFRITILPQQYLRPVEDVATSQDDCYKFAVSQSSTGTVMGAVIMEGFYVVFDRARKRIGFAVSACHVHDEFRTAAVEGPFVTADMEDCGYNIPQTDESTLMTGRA

Kd [nM]	Binder
< 0.41	B11
< 0.46	B12
0.32	B13
< 0.37	B14
0.38	B15
< 0.24	B16
< 0.28	B17
0.28	B18
< 0.43	B19
0.76	B20
< 0.27	B21

Biological target: T3, human BACE1 ECD
Experiment: Octet, pH 7.5;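 also: antibodies captured on anti-human capture sensor tips, dissociation monitored in PBS with BSA, Kd obtained from kinetic fit to a one-to-one binding model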
Procedure: as §4

Kd [nM]	Binder
< 0.29	B11
< 0.41	B12
0.4	B13
< 0.48	B14
0.37	B15
0.28	B16
< 0.28	B17
< 0.21	B18
< 0.45	B19
< 0.37	B20
< 0.26	B21

Biological target: T4, murine BACE1 ECD
Experiment: Octet, pH 7.5;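 also: antibodies captured on anti-human capture sensor tips, dissociation monitored in PBS with BSA, Kd obtained from kinetic fit to a one-to-one binding model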
Procedure: as §4

Kd [nM]	Binder
< 0.4	B11
< 0.41	B12
< 0.26	B13
< 0.49	B14
0.28	B15
< 0.24	B16
< 0.28	B17
< 0.23	B18
< 0.46	B19
< 0.37	B20
< 0.27	B21

Biological target: T5, human BACE1 (R&D Systems) (human, UniProt P56817)
T5 construct: recombinant, commercial (R&D Systems)
Experiment: SPR (Biacore)
Procedure: Binding affinities of certain anti-BACE1 IgGs were measured by surface plasmon resonance (SRP) using a BIAcore™-T100 instrument. […] Association rates (kon) and dissociation rates (koff) were calculated using a simple one-to-one Langmuir binding model (BIAcore Evaluation Software version 3.2). The equilibrium dissociation constant (KD) was calculated as the ratio koff/kon.

T5 sequence (P56817 22-457 limits assumed): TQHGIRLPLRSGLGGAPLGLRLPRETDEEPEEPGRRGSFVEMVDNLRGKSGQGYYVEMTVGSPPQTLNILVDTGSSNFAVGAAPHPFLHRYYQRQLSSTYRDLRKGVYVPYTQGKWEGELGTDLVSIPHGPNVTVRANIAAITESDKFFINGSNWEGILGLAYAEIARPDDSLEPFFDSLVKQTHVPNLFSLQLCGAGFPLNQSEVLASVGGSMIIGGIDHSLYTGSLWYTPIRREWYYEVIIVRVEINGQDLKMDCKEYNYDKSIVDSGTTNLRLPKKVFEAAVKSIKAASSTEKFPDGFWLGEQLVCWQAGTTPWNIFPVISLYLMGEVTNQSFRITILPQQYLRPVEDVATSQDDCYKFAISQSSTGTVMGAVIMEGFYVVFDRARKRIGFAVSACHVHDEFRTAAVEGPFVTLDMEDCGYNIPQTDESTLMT

Kd [nM]	Binder
4.64	B11
5.82	B12
3.87	B13
2.68	B14
7.37	B15
3.29	B16
8.26	B17
4.79	B18
2.11	B19
4.18	B20
3.19	B21

Biological target: T6, BACE1 in primary mouse cortical neurons (mouse, UniProt P56818 46-501)
Experiment: cell-based or functional assay

T6 sequence (P56818 46-501): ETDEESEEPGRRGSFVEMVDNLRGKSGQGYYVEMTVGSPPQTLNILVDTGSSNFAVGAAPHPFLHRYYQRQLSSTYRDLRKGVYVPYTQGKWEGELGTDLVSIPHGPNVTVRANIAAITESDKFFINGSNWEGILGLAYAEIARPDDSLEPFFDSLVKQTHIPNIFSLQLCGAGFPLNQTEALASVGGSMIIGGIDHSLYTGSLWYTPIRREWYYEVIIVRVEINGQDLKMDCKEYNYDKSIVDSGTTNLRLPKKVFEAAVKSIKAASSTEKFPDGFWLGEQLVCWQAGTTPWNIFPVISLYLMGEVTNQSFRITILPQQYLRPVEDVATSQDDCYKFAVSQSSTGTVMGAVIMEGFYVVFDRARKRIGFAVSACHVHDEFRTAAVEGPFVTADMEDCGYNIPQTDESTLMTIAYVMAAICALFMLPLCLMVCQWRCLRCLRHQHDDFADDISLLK

IC50, Abeta x-40 in mouse cortical neurons [nM]	maximal % inhibition of Abeta x-40 [%]	Binder
4.48	85	B11
3.89	63	B13
1.27	71	B14
5.21	74	B15
7.92	62	B16
0.88	75	B17
11	67	B18
6.23	71	B19
4.82	85	B20
3.17	63	B21

Biological target: T6, BACE1 in primary mouse cortical neurons
Experiment: cell-based or functional assay
Remark: another data set of the same source

IC50, Abeta x-40 in mouse cortical neurons [nM]	maximal % inhibition of Abeta x-40 [%]	Binder
10.4	70	B12
